Reference: patent publication EP4039268A1
Blank lines part the entries; values can stand above or below the substance they belong to.

Legend:
[1] = target: monomeric SARS-CoV-2 receptor binding domain (RBD-H6) (SARS-CoV-2) (UniProt P0DTC2); assay: ELISA screen
[2] = target: human recombinant soluble ACE2 (human) (UniProt Q9BYF1); assay: ELISA screen
[3] = target: full-length trimeric SARS-CoV-2 Spike protein (Spike-H6) (SARS-CoV-2); assay: ELISA screen
[4] = target: full-length trimeric SARS-CoV-2 Spike protein (Spike-H6) (SARS-CoV-2); assay: SPR, Spike immobilized, bivalent analyte model, first binding step
[5] = target: full-length trimeric SARS-CoV-2 Spike protein (Spike-H6) (SARS-CoV-2); assay: AFM single molecule force spectroscopy, Evans model
[6] = target: full-length trimeric SARS-CoV-2 Spike protein (Spike-H6) (SARS-CoV-2); assay: high-speed AFM, from volumes
[7] = target: full-length trimeric SARS-CoV-2 Spike protein (Spike-H6) (SARS-CoV-2); assay: inhibition of Spike binding to Vero E6 cells, AFM

Chain of human recombinant soluble ACE2 (human) (Q9BYF1 18-740 limits assumed): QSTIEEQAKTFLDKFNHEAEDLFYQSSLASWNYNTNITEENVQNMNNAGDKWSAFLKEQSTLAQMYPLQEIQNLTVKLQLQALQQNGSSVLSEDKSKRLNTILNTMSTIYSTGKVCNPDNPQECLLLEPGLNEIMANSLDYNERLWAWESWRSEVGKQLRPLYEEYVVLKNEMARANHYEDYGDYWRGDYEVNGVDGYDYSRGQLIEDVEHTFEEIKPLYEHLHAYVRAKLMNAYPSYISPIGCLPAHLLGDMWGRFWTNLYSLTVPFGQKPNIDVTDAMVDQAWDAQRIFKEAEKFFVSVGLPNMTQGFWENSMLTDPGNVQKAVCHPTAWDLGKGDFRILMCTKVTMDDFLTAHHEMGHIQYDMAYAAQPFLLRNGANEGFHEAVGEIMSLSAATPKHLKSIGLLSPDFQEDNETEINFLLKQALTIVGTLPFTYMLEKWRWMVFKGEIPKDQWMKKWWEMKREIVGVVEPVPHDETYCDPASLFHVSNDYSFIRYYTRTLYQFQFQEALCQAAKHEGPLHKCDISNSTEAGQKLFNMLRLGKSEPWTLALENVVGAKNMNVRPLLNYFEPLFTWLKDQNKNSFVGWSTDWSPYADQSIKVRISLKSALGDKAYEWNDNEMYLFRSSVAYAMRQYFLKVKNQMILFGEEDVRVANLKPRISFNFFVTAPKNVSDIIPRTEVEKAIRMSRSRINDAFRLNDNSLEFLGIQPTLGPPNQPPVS
Chain of human CLEC4G-hIgG1 Fc-fusion protein (Fc fusion) (Q6UXB4 53-293, form in doubt): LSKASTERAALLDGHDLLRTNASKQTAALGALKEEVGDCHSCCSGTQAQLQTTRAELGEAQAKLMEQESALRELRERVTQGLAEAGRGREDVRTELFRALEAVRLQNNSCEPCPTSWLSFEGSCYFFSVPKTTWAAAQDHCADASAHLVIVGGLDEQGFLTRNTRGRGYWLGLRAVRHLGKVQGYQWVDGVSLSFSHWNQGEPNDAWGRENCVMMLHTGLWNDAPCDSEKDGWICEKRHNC
Chain of Clec2h CRD-mouse IgG2a-Fc fusion protein (Q8C1T8 other isoform, or with tags, fused parts or gaps limits assumed): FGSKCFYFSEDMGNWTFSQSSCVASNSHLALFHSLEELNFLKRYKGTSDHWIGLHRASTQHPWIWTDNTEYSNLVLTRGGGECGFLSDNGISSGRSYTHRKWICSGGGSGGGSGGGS
Chain of Ncan CRD-mouse IgG2a-Fc fusion protein (P55066 other isoform, or with tags, fused parts or gaps limits assumed): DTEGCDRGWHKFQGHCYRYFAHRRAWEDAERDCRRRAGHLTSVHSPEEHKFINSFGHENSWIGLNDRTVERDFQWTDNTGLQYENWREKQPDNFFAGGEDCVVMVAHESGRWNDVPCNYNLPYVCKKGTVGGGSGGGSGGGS
Chain of Ly75_1 CRD-mouse IgG2a-Fc fusion protein (Q60767 other isoform, or with tags, fused parts or gaps limits assumed): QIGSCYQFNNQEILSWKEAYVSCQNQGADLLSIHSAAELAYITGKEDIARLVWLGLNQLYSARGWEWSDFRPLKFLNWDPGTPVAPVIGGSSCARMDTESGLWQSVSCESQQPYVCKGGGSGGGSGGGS
Chain of Olr1 CRD-mouse IgG2a-Fc fusion protein (Q9EQ09 other isoform, or with tags, fused parts or gaps limits assumed): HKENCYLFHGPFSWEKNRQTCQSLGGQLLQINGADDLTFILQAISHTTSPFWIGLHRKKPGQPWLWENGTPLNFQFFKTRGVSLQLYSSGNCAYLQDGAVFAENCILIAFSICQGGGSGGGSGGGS
Chain of Clec4g CRD-mouse IgG2a-Fc fusion protein (Q8BNX1 other isoform, or with tags, fused parts or gaps limits assumed): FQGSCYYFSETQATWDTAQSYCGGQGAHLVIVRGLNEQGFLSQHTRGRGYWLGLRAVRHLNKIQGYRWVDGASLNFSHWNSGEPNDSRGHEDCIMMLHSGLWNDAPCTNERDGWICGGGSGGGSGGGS
Chain of Ly75_5 CRD-mouse IgG2a-Fc fusion protein (Q60767 other isoform, or with tags, fused parts or gaps limits assumed): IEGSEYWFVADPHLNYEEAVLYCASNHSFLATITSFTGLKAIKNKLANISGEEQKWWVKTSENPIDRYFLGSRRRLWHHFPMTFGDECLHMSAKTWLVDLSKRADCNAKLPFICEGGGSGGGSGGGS
Chain of Lgals6_2 CRD-mouse IgG2a-Fc fusion protein (O54891 other isoform, or with tags, fused parts or gaps limits assumed): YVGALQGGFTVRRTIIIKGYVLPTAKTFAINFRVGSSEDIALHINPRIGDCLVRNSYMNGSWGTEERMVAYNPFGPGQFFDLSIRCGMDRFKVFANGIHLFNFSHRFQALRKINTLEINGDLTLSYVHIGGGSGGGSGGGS
Chain of Bcan CRD-mouse IgG2a-Fc fusion protein (Q61361 other isoform, or with tags, fused parts or gaps limits assumed): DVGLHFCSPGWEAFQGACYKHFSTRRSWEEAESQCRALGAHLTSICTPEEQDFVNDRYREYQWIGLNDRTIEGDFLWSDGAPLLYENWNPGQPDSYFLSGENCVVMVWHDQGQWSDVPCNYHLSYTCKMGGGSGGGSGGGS
Chain of Asgr1 CRD-mouse IgG2a-Fc fusion protein (P34927 other isoform, or with tags, fused parts or gaps limits assumed): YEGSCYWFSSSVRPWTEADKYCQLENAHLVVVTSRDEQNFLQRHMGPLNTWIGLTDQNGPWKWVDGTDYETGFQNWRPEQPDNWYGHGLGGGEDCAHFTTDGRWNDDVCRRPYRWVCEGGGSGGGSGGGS
Chain of Clec2g CRD-mouse IgG2a-Fc fusion protein (Q9D676 other isoform, or with tags, fused parts or gaps limits assumed): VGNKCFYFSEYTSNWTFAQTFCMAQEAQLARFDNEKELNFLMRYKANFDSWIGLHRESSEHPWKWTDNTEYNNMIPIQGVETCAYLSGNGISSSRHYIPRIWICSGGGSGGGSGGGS
Chain of Ly75_2 CRD-mouse IgG2a-Fc fusion protein (Q60767 other isoform, or with tags, fused parts or gaps limits assumed): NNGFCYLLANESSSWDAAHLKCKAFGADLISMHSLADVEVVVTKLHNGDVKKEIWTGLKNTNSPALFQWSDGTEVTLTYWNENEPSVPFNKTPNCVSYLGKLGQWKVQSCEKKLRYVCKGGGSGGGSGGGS
Chain of Lgals4_1 CRD-mouse IgG2a-Fc fusion protein (Q8K419 other isoform, or with tags, fused parts or gaps limits assumed): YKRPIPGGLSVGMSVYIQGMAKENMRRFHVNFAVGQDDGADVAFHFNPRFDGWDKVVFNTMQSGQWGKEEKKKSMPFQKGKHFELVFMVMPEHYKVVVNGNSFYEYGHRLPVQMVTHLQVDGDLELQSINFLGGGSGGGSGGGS
Chain of Clec2i CRD-mouse IgG2a-Fc fusion protein (Q9WVF9 other isoform, or with tags, fused parts or gaps limits assumed): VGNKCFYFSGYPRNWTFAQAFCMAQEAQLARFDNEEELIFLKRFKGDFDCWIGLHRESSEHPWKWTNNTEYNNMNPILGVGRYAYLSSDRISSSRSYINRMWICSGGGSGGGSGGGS

Substance: Asgr1 CRD-mouse IgG2a-Fc fusion protein (from UniProt P34927 160-277)
Mean normalized OD [1]: 0.697 OD

Substance: Bcan CRD-mouse IgG2a-Fc fusion protein (from UniProt Q61361 658-786)
Mean normalized OD [1]: 0.101 OD

Substance: Cd33 CRD-mouse IgG2a-Fc fusion protein (from UniProt Q63994 17-120)
Mean normalized OD [2]: 0.216 OD
Mean normalized OD [3]: 0.023 OD
Mean normalized OD [1]: 0.009 OD

Substance: Cd93 CRD-mouse IgG2a-Fc fusion protein (from UniProt O89103 31-173)
Mean normalized OD [2]: -0.163 OD
Mean normalized OD [3]: 0 OD
Mean normalized OD [1]: -0.005 OD

Substance: Cd209f CRD-mouse IgG2a-Fc fusion protein
Mean normalized OD [2]: 0.182 OD
Mean normalized OD [3]: 0.018 OD
Mean normalized OD [1]: 0.015 OD

Substance: Clec2f CRD-mouse IgG2a-Fc fusion protein
Mean normalized OD [2]: -0.261 OD
Mean normalized OD [3]: -0.02 OD
Mean normalized OD [1]: 0.045 OD

Substance: Clec2g CRD-mouse IgG2a-Fc fusion protein (from UniProt Q9D676 150-254)
Mean normalized OD [1]: 0.421 OD

Substance: Clec2h CRD-mouse IgG2a-Fc fusion protein (from UniProt Q8C1T8 97-201)
Mean normalized OD [1]: 0.237 OD

Substance: Clec2i CRD-mouse IgG2a-Fc fusion protein (from UniProt Q9WVF9 99-203)
Mean normalized OD [1]: 0.178 OD

Substance: Clec2j CRD-mouse IgG2a-Fc fusion protein
Mean normalized OD [2]: 0.059 OD
Mean normalized OD [3]: 0.006 OD
Mean normalized OD [1]: 0.005 OD

Substance: Clec4a1 CRD-mouse IgG2a-Fc fusion protein
Mean normalized OD [2]: -0.004 OD
Mean normalized OD [3]: 0.014 OD
Mean normalized OD [1]: 0.024 OD

Substance: Clec4a3 CRD-mouse IgG2a-Fc fusion protein
Mean normalized OD [2]: 0.001 OD
Mean normalized OD [3]: 0.002 OD
Mean normalized OD [1]: 0.002 OD

Substance: Clec4a4 CRD-mouse IgG2a-Fc fusion protein
Mean normalized OD [2]: -0.009 OD
Mean normalized OD [3]: 0.004 OD
Mean normalized OD [1]: 0.007 OD

Substance: Clec4a CRD-mouse IgG2a-Fc fusion protein (from UniProt Q9QZ15 126-233)
Mean normalized OD [2]: 0.062 OD
Mean normalized OD [3]: 0.014 OD
Mean normalized OD [1]: 0.036 OD

Substance: Clec4b1 CRD-mouse IgG2a-Fc fusion protein
Mean normalized OD [2]: 0.001 OD
Mean normalized OD [3]: 0.013 OD
Mean normalized OD [1]: 0.023 OD

Substance: Clec4b2 CRD-mouse IgG2a-Fc fusion protein
Mean normalized OD [2]: 0.008 OD
Mean normalized OD [3]: -0.013 OD
Mean normalized OD [1]: 0.003 OD

Substance: Clec4f CRD-mouse IgG2a-Fc fusion protein (from UniProt P70194 438-538)
Mean normalized OD [2]: 0.194 OD
Mean normalized OD [3]: -0.146 OD
Mean normalized OD [1]: 0.362 OD

Substance: Clec4g CRD-mouse IgG2a-Fc fusion protein (from UniProt Q8BNX1 172-287)
Mean normalized OD [1]: 0.451 OD

Mean normalized OD [2]: 0.317 OD
Substance: Colec12 CRD-mouse IgG2a-Fc fusion protein (from UniProt Q8K4Q8 614-731)

Substance: Fcer2a CRD-mouse IgG2a-Fc fusion protein (from UniProt P20693 185-298)
Mean normalized OD [2]: -0.004 OD
Mean normalized OD [3]: 0.007 OD
Mean normalized OD [1]: 0 OD

Substance: Gm156 CRD-mouse IgG2a-Fc fusion protein
Mean normalized OD [2]: 0.009 OD
Mean normalized OD [3]: 0.074 OD
Mean normalized OD [1]: 0.048 OD

Substance: IgG2a
Mean normalized OD [2]: -0.003 OD
Mean normalized OD [3]: 0.001 OD
Mean normalized OD [1]: 0 OD

Substance: Klrb1b_1 CRD-mouse IgG2a-Fc fusion protein
Mean normalized OD [2]: 0.003 OD
Mean normalized OD [3]: 0.001 OD
Mean normalized OD [1]: 0.002 OD

Substance: Klrc1 CRD-mouse IgG2a-Fc fusion protein
Mean normalized OD [2]: 0.039 OD
Mean normalized OD [3]: 0.006 OD
Mean normalized OD [1]: 0.01 OD

Substance: Klrc2 CRD-mouse IgG2a-Fc fusion protein
Mean normalized OD [2]: 0.104 OD
Mean normalized OD [3]: 0.025 OD
Mean normalized OD [1]: 0.035 OD

Substance: Klrc3 CRD-mouse IgG2a-Fc fusion protein
Mean normalized OD [2]: 0.086 OD
Mean normalized OD [3]: -0.007 OD
Mean normalized OD [1]: 0.061 OD

Substance: Lgals4_1 CRD-mouse IgG2a-Fc fusion protein (from UniProt Q8K419 19-150)
Mean normalized OD [1]: 0.143 OD

Substance: Lgals6_2 CRD-mouse IgG2a-Fc fusion protein (from UniProt O54891 173-301)
Mean normalized OD [2]: 0.528 OD
Mean normalized OD [1]: 0.073 OD

Mean normalized OD [2]: 0.367 OD
Substance: Lgals9_2 CRD-mouse IgG2a-Fc fusion protein (from UniProt O08573 225-353)

Substance: Ly75_1 CRD-mouse IgG2a-Fc fusion protein (from UniProt Q60767 225-341)
Mean normalized OD [1]: 0.29 OD

Substance: Ly75_2 CRD-mouse IgG2a-Fc fusion protein (from UniProt Q60767 368-486)
Mean normalized OD [1]: -0.206 OD

Substance: Ly75_5 CRD-mouse IgG2a-Fc fusion protein (from UniProt Q60767 818-932)
Mean normalized OD [1]: 0.14 OD

Substance: Mag CRD-mouse IgG2a-Fc fusion protein (from UniProt P20917 22-120)
Mean normalized OD [2]: 0.032 OD
Mean normalized OD [3]: 0.008 OD
Mean normalized OD [1]: 0.004 OD

Substance: Mbl1 CRD-mouse IgG2a-Fc fusion protein (from UniProt P39039 144-239)
Mean normalized OD [2]: 0.098 OD
Mean normalized OD [3]: 0.043 OD
Mean normalized OD [1]: 0.019 OD

Substance: Mgl2 CRD-mouse IgG2a-Fc fusion protein
Mean normalized OD [2]: 0.145 OD
Mean normalized OD [3]: 0.598 OD
Mean normalized OD [1]: 1.31 OD

Substance: Ncan CRD-mouse IgG2a-Fc fusion protein (from UniProt P55066 1036-1165)
Mean normalized OD [1]: 0.279 OD

Substance: Olr1 CRD-mouse IgG2a-Fc fusion protein (from UniProt Q9EQ09 242-355)
Mean normalized OD [1]: 0.379 OD

Substance: Prg2 CRD-mouse IgG2a-Fc fusion protein
Mean normalized OD [2]: -0.014 OD
Mean normalized OD [3]: 0.009 OD
Mean normalized OD [1]: 0.001 OD

Substance: Prg3 CRD-mouse IgG2a-Fc fusion protein
Mean normalized OD [2]: -0.298 OD
Mean normalized OD [3]: -0.271 OD
Mean normalized OD [1]: -0.057 OD

Substance: Reg3d CRD-mouse IgG2a-Fc fusion protein
Mean normalized OD [2]: 0.152 OD
Mean normalized OD [3]: 0.019 OD
Mean normalized OD [1]: 0.019 OD

Substance: Siglec5 CRD-mouse IgG2a-Fc fusion protein
Mean normalized OD [2]: 0.146 OD
Mean normalized OD [3]: 0.041 OD
Mean normalized OD [1]: 0.019 OD

Mean normalized OD [2]: 0.299 OD
Substance: Siglec10 CRD-mouse IgG2a-Fc fusion protein (from UniProt Q80ZE3 26-138)

Substance: Siglech CRD-mouse IgG2a-Fc fusion protein
Mean normalized OD [2]: -0.003 OD
Mean normalized OD [3]: 0.003 OD
Mean normalized OD [1]: 0 OD

Mean normalized OD [2]: 0.332 OD
Substance: Vcan CRD-mouse IgG2a-Fc fusion protein (from UniProt Q62059 3138-3252)

Substance: human CD209-hIgG1 Fc-fusion protein (from UniProt Q9NNX6 62-404) (Fc fusion)
Kd [4]: 2390 nM
koff [4]: 0.0316 s⁻¹
kon [4]: 13200 M⁻¹ s⁻¹
koff [5]: 0.008 s⁻¹
xβ (length of dissociation path) [5]: 0.73 nm
molecules bound per trimeric Spike (average) (molecules per trimeric Spike) [6]: 3.6

Substance: human CLEC4G-hIgG1 Fc-fusion protein (Fc fusion)
Kd [4]: 259 nM
koff [4]: 0.0201 s⁻¹
kon [4]: 77700 M⁻¹ s⁻¹
koff [5]: 0.007 s⁻¹
xβ (length of dissociation path) [5]: 0.64 nm
Ki [7]: 35 to 70 nM
molecules bound per trimeric Spike (average) (molecules per trimeric Spike) [6]: 3.5
